Experimental data reported in patent US20020146774A1 (LUDWIG INSTITUTE FOR CANCER RESEARCH, published 2002).
Where no end group is shown, it is not given here. [ ]: non-standard residue; d: D form. pS = N[C@@H](COP(=O)(O)O)C(=O)O

Target: T1, GST (UniProt P08515 1-218 = GST)
T1 construct: Control for GST-Smad4; also called GST protein
Assay: peptide-Sepharose pull-down, anti-GST immunoblot
Text: To investigate whether phosphorylated Ser465 and Ser467 of Smad2 are directly involved in heteromeric interaction with Smad4, phosphorylated and non-phosphorylated peptides corresponding to the C-terminus of Smad2 were made and tested for their ability to bind GST-Smad4 fusion proteins. Short C-terminal peptide of Smad2 SSMS (SNp; SEQ ID NO: 3) or its phosphorylated counterpart (SPp), as well as long C-terminal-peptide […] (LNp; SEQ ID NO: 4) or its phosphorylated counterpart (LPp), coupled to CNBr-Sepharose (peptide beads), were incubated with GST or GST-Smad4 fusion protein. For competition large excesses (200 μM) of non-phosphorylated short (SNp) or long (LNp) peptides or their phosphorylated counterpart (SPp and LPp, respectively) were used (block). Proteins bound to the beads, were resolved by SDS-PAGE, transferred to nitrocellulose membrane and immunoblotted with anti-GST antibodies. Migration positions of GST and GST-Smad4 are shown by double arrows. Molecular masses of standard proteins are indicated on the left side on gel in which protein-stained GST and GST-Smad4 are shown. […] The phosphorylated long peptide also bound GST-Smad4 more efficiently, than the non-phosphorylated counterpart, however, a considerable binding was observed also to the long non-phosphorylated peptide.

T1 sequence (P08515 whole entry): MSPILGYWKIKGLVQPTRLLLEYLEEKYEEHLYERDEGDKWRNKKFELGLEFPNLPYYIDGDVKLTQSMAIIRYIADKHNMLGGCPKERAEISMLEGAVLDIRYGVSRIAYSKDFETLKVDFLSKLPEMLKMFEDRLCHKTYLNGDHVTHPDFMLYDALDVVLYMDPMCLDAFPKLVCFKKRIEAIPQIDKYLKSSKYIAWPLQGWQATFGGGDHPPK

- binding result: no binding
B1: short C-terminal peptide of Smad2 SSpMSp, doubly phosphorylated (peptide)
peptide: KKKS[pS]M[pS]
notes: The same phosphopeptide was the immunogen of the Smad2 phospho tail antibody; also called SPp
